“And” between values parts separate entries of the source, which are not always exact repeats. Equal entries are not always repeated.
Tests used:
[1] = target: P74-26 decoration protein (gene product 87) (bacteriophage P74-26); assay: cryo-EM structure; single-particle reconstruction of the capsid of purified P74-26 virions with icosahedral symmetry imposed; virions in 50 mM Tris pH 8.0, 10 mM NaCl, 10 mM MgCl2; 2.8 Å (0.143 FSC)
[2] = target: P74-26 major capsid protein (gene product 86) (bacteriophage P74-26); assay: as above

Row | stoichiometry N [1] | stoichiometry N [2] | Substance
1 | 3 | – | P74-26 decoration protein (gene product 87) (natural protein)
2 | – | 5 and 6 | P74-26 major capsid protein (gene product 86) (natural protein)
